Test results as given in WO1994018227A2.

Target: natural affinity purified heavy chain class I K d molecules
Assay: binding inhibition experiment with radiolabelled ligands

affinity, fold lower than the human β2-microglobulin: 5 times lower
Substance: Recombinant murine β2-microglobulin
